Assay results as given in patent publication US20150344570A1 (published 2015).
Numbering of substitutions follows the chain as printed. In names and notes the source's numbering stands. Values belong to the binder of their own block, whether it stands above or below them.

Experiments:
[1] = molecular target: T1, FcγRIIIa F extracellular domain with C-terminal His tag (human, UniProt P08637 17-208); experiment: SPR (Biacore), antibody captured on chip, soluble FcγR as analyte, 1:1 Langmuir fit
T1 construct: extracellular domain; Soluble receptor, F158 allotype; also called FcgRIIIa F; FcgRIIIaF; not shown: His tag at the C terminus
T1 sequence (P08637 17-208): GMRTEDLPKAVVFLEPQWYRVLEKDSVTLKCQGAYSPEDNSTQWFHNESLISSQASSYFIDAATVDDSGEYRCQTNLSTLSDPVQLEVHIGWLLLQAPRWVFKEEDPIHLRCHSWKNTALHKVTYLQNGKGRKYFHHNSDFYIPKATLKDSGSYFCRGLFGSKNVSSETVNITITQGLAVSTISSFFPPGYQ
Method: (§1) Specifically, H240-Hl134 (SEQ ID NO: 88) resulting from introduction of L234Y/L235Y/G236W/H268D/S298A into H240-Hl033 and H240-Kn132 (SEQ ID NO: 89) resulting from introduction of K326D/A330M/K334E into H240-Kn033 were constructed according to the method described in Reference Example 1.
(§2) Analysis of interaction between objective antibody and the FcγR was carried out using Biacore T100 (GE Healthcare), Biacore T200, Biacore A100, and Biacore 4000. HBS-EP+ (GE Healthcare) was used as the running buffer, and the measurement temperature was set to 25° C. Chips produced by immobilizing the antigen peptide by the amine coupling method to a Series S sensor Chip CM5 (GE Healthcare), chips produced by allowing preliminarily biotinylated antigen peptides to interact with and immobilize onto a Series S Sensor Chip SA (certified) (GE Healthcare), chips produced by immobilizing Protein L (ACTIGEN, BioVision) to Series S Sencor Chip CM5 (GE Healthcare), or chips produced by immobilizing Protein A/G (Thermo Scientific) to Series S Sencor Chip CM5 (GE Healthcare) were used. Antibodies of interest were captured onto these chips, and allowed to interact to each FcγR diluted with running buffer. To regenerate and repeatedly use the chip, the antibodies captured onto the chip were washed off by reacting 10 mM glycine-HCl, pH 1.5.

[2] = molecular target: T2, FcγRIIIa V extracellular domain with C-terminal His tag (human, UniProt P08637 17-208); experiment: as above
T2 construct: extracellular domain; Soluble receptor, V158 allotype; also called FcgRIIIa V; FcgRIIIaV; not shown: His tag at the C terminus
T2 sequence (P08637 17-208 F176V): as the sequence (P08637 17-208) above, with F160V counted along it
Method: as §1, §2

[3] = molecular target: FcγRIIIa extracellular domain with C-terminal His tag (human, UniProt P08637 17-208); experiment: SPR (Biacore), relative binding activity; GpH7-A5/GpH7-B3/GpL16-k0 = 100
Chain of FcγRIIIa extracellular domain with C-terminal His tag (P08637 17-208): as the sequence (P08637 17-208) above

FcγRIIIa [4] = molecular target: T3, FcγRIIIa (human, UniProt P08637 17-208); experiment: ratio of SPR KDs: KD of GpH7-TA7/GpH7-B78/GpL16-k0 divided by KD of this antibody
T3 construct: extracellular domain; also called FcgRIIIa; CD16A; not shown: His tag attached to the C terminus
T3 sequence (P08637 17-208): as above
Source text: First, it was considered which H chain should be introduced with Y296W. GpH7-TA52 (SEQ ID NO: 44) resulting from the introduction of the mutation Y296W into GpH7-TA7 was constructed, and expressed and prepared in combination with GpH7-B78 according to the method described in Reference Example 1. Furthermore, GpH7-TA58 (SEQ ID NO: 45) resulting from the introduction of Y296W into GpH7-B78 was constructed, and expressed and prepared in combination with GpH7-TA22 according to the method described in Reference Example 1. To assess the effects of combinations with Y296W, the prepared antibodies were compared for the FcγRIIIa-binding activity according to the method described in Reference Example 2 (Table 16).
(§3) Analysis of interaction between objective antibody and the FcγR was carried out using Biacore T100 (GE Healthcare). HBS-EP+ (GE Healthcare) was used as the running buffer, and the measurement temperature was set to 25° C. Chips produced by immobilizing the antigen peptide by the amine coupling method to a Series S Sencor Chip CM5 (GE Healthcare), or alternatively, chips produced by allowing preliminarily biotinylated antigen peptides to interact with and immobilize onto a Series S Sensor Chip SA (certified) (GE Healthcare) were used. Antibodies of interest were captured onto an antigen peptide-immobilized chip, and allowed to interact to each FcγR diluted with running buffer. To regenerate and repeatedly use the chip, the antibodies captured on the chip were washed off by reacting 10 mM glycine-HCl, pH 1.5.

FcγRIIIa [5] = molecular target: T3, FcγRIIIa; experiment: ratio of SPR KDs: KD of GpH7-G1d/GpL16-k0 divided by KD of this antibody
Method: (§4) The prepared antibodies were compared for the FcγRIIIa-binding activity using, as an indicator, KD for FcγRIIIa that was determined according to the method described in Reference Example 2.
as §3
(§5) Specifically, to calculate association rate constant ka (L/mol/s) and dissociation rate constant kd (1/s), sensorgrams obtained by measurement were processed for global fitting by Biacore Evaluation Software using 1:1 Langmuir binding model and dissociation constant KD (mol/1) was calculated from the resulting values.

FcγRIIIa [6] = molecular target: T3, FcγRIIIa; experiment: ratio of SPR KDs: KD of GpH7-A5/GpH7-B3/GpL16-k0 divided by KD of this antibody
Method: as §4, §3, §5

FcγRIIIa [7] = molecular target: T3, FcγRIIIa; experiment: ratio of SPR KDs: KD of GpH7-A5/GpH7-B78/GpL16-k0 divided by KD of this antibody
Method: To assess this hypothesis, GpH7-A53 (SEQ ID NO: 42) resulting from the introduction of S239D into GpH7-A5 was constructed, and, this is combined with GpH7-B78 introduced with S239D, A330L, and I332E, and the expression and preparation were performed according to the method described in Reference Example 1. The effect of the combination of S239D and S239D, A330L, and I332E was assessed by comparing the FcγRIIIa binding between the heterodimerized and homodimerized antibodies with S239D, A330L, and I332E according to the method described in Reference Example 2 (Table 14).
as §3, §5

FcγRIIIa [8] = molecular target: T3, FcγRIIIa; experiment: ratio of SPR KDs: KD of GpH7-TA22/GpH7-B78/GpL16-k0 divided by KD of this antibody
Source text: Then, GpH7-TA54 (SEQ ID NO: 46) resulting from the introduction of Y296W into GpH7-TA22 was constructed, and expressed and prepared in combination with GpH7-B78 according to the method described in Reference Example 1. Furthermore, GpH7-TA58 (SEQ ID NO: 45) resulting from the introduction of Y296W into GpH7-B78 was constructed, and expressed and prepared in combination with GpH7-TA22 according to the method described in Reference Example 1. To assess the effect of combination with Y296W, the prepared antibodies were compared for the FcγRIIIa-binding activity according to the method described in Reference Example 2 (Table 17).
as §3

KD ratio (FcγRIIIa [8]): 1.3 fold
B9: GpH7-TA54/GpH7-B78/GpL16-k0 (antibody, human IgG1, kappa)
heavy 1: QVQLVQSGAEVKKPGASVTVSCKASGYTFTDYEMHWIRQPPGEGLEWIGAIDPKTGDTAYSESFQDRVTLTADKSTSTAYMELSSLTSEDTAVYYCTRFYSYTYWGQGTLVTVSSASTKGPSVFPLAPSSKSTSGGTAALGCLVKDYFPEPVTVSWNSGALTSGVHTFPAVLQSSGLYSLSSVVTVPSSSLGTQTYICNVNHKPSNTKVDKKVEPKSCDKTHTCPPCPAPEYLWGPDVFLFPPKPKDTLMISRTPEVTCVVVDVSHEDPEVKFNWYVDGVEVHNAKTKPREEQWNATYRVVSVLTVLHQDWLNGKEYKCKVSNKALPAPIEKTISKAKGQPREPQVYTLPPSRKELTKNQVSLTCLVKGFYPSDIAVEWESNGQPENNYKTTPPVLDSDGSFFLYSKLTVDKSRWQQGNVFSCSVMHEALHNRYTQKSLSLSP
heavy 2: B9 heavy 1 with Y232L, W234G, W294Y, A296S, A328L, I330E, K354D, R433H, K437E
light: DIVMTQSPLSLPVTPGEPASISCQASESLVHSNRNTYLHWYLQKPGQSPQLLIYKVSNRFSGVPDRFSGSGSGTDFTLKISRVEAEDVGVYYCSQNTHVPPTFGQGTKVEIERTVAAPSVFIFPPSDEQLKSGTASVVCLLNNFYPREAKVQWKVDNALQSGNSQESVTEQDSKDSTYSLSSTLTLSKADYEKHKVYACEVTHQGLSSPVTKSFNRGEC
notes: Anti-glypican-3 IgG1 heterodimer; L234Y/G236W/S239D/S298A/Y296W in H1, S239D/A330L/I332E in H2

KD ratio (FcγRIIIa [4]): 1.8 fold
B10: GpH7-TA52/GpH7-B78/GpL16-k0 (antibody, human IgG1, kappa)
heavy 1: B9 heavy 1 with D237S
heavy 2: B9 heavy 1 with Y232L, W234G, W294Y, A296S, A328L, I330E, K354D, R433H, K437E
light: B9 light
notes: Anti-glypican-3 IgG1 heterodimer; L234Y/G236W/S298A/Y296W in H1, S239D/A330L/I332E in H2

KD ratio (FcγRIIIa [8]): 1 fold
B11: GpH7-TA22/GpH7-TA58/GpL16-k0 (antibody, human IgG1, kappa)
heavy 1: B9 heavy 1 with W294Y
heavy 2: B9 heavy 1 with Y232L, W234G, A296S, A328L, I330E, K354D, R433H, K437E
light: B9 light
notes: Anti-glypican-3 IgG1 heterodimer; L234Y/G236W/S239D/S298A in H1, S239D/A330L/I332E/Y296W in H2

The remaining lines, values behind:

B1: H240-Kn061/H240-Hl134/L73-k0 (antibody, human IgG1, kappa)
heavy 1: QDQLVQSGAEVKKPGASVKVSCKASGFNIKDTYIQWVRQAPGQGLEWMGRIDPLRKQTKYREKFEGRVTITADTSTNTAYMELSSLRSEDTAVYYCVRSGREFDYWGQGTLVTVSSASTKGPSVFPLAPSSKSTSGGTAALGCLVKDYFPEPVTVSWNSGALTSGVHTFPAVLQSSGLYSLSSVVTVPSSSLGTQTYICNVNHKPSNTKVDKKVEPKSCDKTHTCPPCPAPEYYWGPSVFLFPPKPKDTLMISRTPEVTCVVVDVSDEDPEVKFNWYVDGVEVHNAKTKPREEQYNATYRVVSVLTVLHQDWLNGKEYKCKVSNKALPAPIEKTISKAKGQPREPQVCTLPPSRDELTKNQVSLWCLVKGFYPSDIAVEWESNGQPENNYKTTPPVLDSDGSFFLYSKLTVDKSRWQQGNVFSCSVMHEALHNHYTQKSLSLSP
heavy 2: B1 heavy 1 with C348Y, D355C, W365S, L367A, Y406V
light: DIQMTQSPSSLSASVGDRVTITCRASQDIHKYIAWYQQKPGQAPRLLIQYTSTLQPGVPSRFSGSGSGTDYTFTISSLQPEDIATYYCLQYEQLRTFGGGTKVEIKRTVAAPSVFIFPPSDEQLKSGTASVVCLLNNFYPREAKVQWKVDNALQSGNSQESVTEQDSKDSTYSLSSTLTLSKADYEKHKVYACEVTHQGLSSPVTKSFNRGEC
notes: Anti-epiregulin IgG1, knobs-into-holes; called homodimerized as both H chains carry L234Y/L235Y/G236W/H268D/S298A
Kd [1]: 660 nM
Kd [2]: 86 nM

B2: H240-Kn132/H240-Hl071/L73-k0 (antibody, human IgG1, kappa)
heavy 1: B1 heavy 1 with Y233L, Y234L, W235G, D267H, A297S, K325D, A329M, K333E
heavy 2: QDQLVQSGAEVKKPGASVKVSCKASGFNIKDTYIQWVRQAPGQGLEWMGRIDPLRKQTKYREKFEGRVTITADTSTNTAYMELSSLRSEDTAVYYCVRSGREFDYWGQGTLVTVSSASTKGPSVFPLAPSSKSTSGGTAALGCLVKDYFPEPVTVSWNSGALTSGVHTFPAVLQSSGLYSLSSVVTVPSSSLGTQTYICNVNHKPSNTKVDKKVEPKSCDKTHTCPPCPAPELLGGPSVFLFPPKPKDTLMISRTPEVTCVVVDVSHEDPEVKFNWYVDGVEVHNAKTKPREEQYNSTYRVVSVLTVLHQDWLNGKEYKCKVSNDALPMPIEETISKAKGQPREPQVYTLPPSRCELTKNQVSLSCAVKGFYPSDIAVEWESNGQPENNYKTTPPVLDSDGSFFLVSKLTVDKSRWQQGNVFSCSVMHEALHNHYTQKSLSLSP
light: B1 light
notes: Anti-epiregulin IgG1, knobs-into-holes; called homodimerized as both H chains carry K326D/A330M/K334E
Kd [1]: 77 nM
Kd [2]: 16 nM

B3: GpH7-TA5/GpH7-B3-03-20W/GpL16-k0 (antibody, human IgG1, kappa)
heavy 1: B9 heavy 1 with W234G, D237S, W294Y
heavy 2: not shown
light: B9 light
notes: H1 L234Y and S298A; H2 G236W
FcγRIIIa BINDING ACTIVITY [3]: 97%

B4: GpH7-TA6/GpH7-B3-01-15Y/GpL16-k0 (antibody, human IgG1, kappa)
heavy 1: B9 heavy 1 with Y232L, D237S, W294Y
heavy 2: not shown
light: B9 light
notes: H1 G236W and S298A; H2 L234Y
FcγRIIIa BINDING ACTIVITY [3]: 103%

B5: GpH7-TA7/GpH7-TA58/GpL16-k0 (antibody, human IgG1, kappa)
heavy 1: B9 heavy 1 with D237S, W294Y
heavy 2: B9 heavy 1 with Y232L, W234G, A296S, A328L, I330E, K354D, R433H, K437E
light: B9 light
notes: Anti-glypican-3 IgG1 heterodimer; L234Y/G236W/S298A in H1, S239D/A330L/I332E/Y296W in H2
KD ratio (FcγRIIIa [4]): 1.2 fold

B6: GpH7-A57/GpH7-B78/GpL16-k0 (antibody, human IgG1, kappa)
heavy 1: B9 heavy 1 with Y232L, W234G, W294Y, A296S, A328L, I330E
heavy 2: B9 heavy 1 with Y232L, W234G, W294Y, A296S, A328L, I330E, K354D, R433H, K437E
light: B9 light
notes: Anti-glypican-3 IgG1; The two chains differ only in D356K/H435R and K439E
KD ratio 1 (FcγRIIIa [5]): 199 fold
KD ratio 2 (FcγRIIIa [6]): 263 fold
KD ratio (FcγRIIIa [7]): 8.7 fold

B7: GpH7-A5/GpH7-B78/GpL16-k0 (antibody, human IgG1, kappa)
heavy 1: not shown
heavy 2: B9 heavy 1 with Y232L, W234G, W294Y, A296S, A328L, I330E, K354D, R433H, K437E
light: B9 light
notes: Anti-glypican-3 IgG1 heterodimer; S239D/A330L/I332E in H2 only
KD ratio 1 (FcγRIIIa [5]): 23 fold
KD ratio 2 (FcγRIIIa [6]): 30 fold
KD ratio (FcγRIIIa [7]): 1 fold

B8: GpH7-A53/GpH7-B78/GpL16-k0 (antibody, human IgG1, kappa)
heavy 1: B9 heavy 1 with Y232L, W234G, W294Y, A296S
heavy 2: B9 heavy 1 with Y232L, W234G, W294Y, A296S, A328L, I330E, K354D, R433H, K437E
light: B9 light
notes: Anti-glypican-3 IgG1 heterodimer; S239D in H1, S239D/A330L/I332E in H2
KD ratio (FcγRIIIa [7]): 4.9 fold
